Laboratory results published in patent publication US20250388697A1 (UNIVERSITY OF MASSACHUSETTS, published 2025).

Molecular target: T1, endogenous murine SOD1 WT (in non-transgenic mouse spinal cord lysate) (mouse, UniProt P08228 2-154)
T1 construct: Tested only as a component of clarified spinal cord lysate; also called marine SOD1 WT (as printed once)
Test: competitive ELISA: Nb54 (0.2 µg/ml) on immobilized SOD1 G93A with Non-Tg mouse spinal cord lysate as competitor
Protocol: A competitive ELISA was used to assess a potential interaction between nanobody and SOD1 derived from an ALS mouse model as follows. […] All research involving animals for the following post-mortem tissue processing was reviewed and approved by the Institutional Animal Care and Use Committee (IACUC) at the University of Massachusetts Chan Medical School.
Serial dilutions were prepared in 25 μl of assay buffer (0.2% (w/v) BSA in PBS). […] A statistical analysis was performed as described below and in the figure legend.

T1 sequence (P08228 2-154 limits assumed): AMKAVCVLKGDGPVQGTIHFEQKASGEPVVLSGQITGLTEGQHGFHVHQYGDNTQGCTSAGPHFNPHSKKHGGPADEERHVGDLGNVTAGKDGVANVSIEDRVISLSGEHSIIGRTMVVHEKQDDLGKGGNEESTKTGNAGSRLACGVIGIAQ

B1: Nb54 with a non-cleavable his-tag (used in the competitive ELISA) (VHH)
VHH: QVQLVESGGGWVQAGGSLRLSCVVSGTNFNDRSMGWYRQAPGKERELVATLSYGGRRNYVDAVKARFTMSRDNRKNTTYLLMNDLEPDDTAVYYCAAGHVLESVVPATTWIEYWGQGTQVTVSS
notes: not shown: non-cleavable his-tag
B1: no binding.
